Experimental data as given in PMC8125234, “Cardiolipin Stabilizes and Increases Catalytic Efficiency of Carnitine Palmitoyltransferase II and Its Variants S113L, P50H, and Y479F” (International Journal of Molecular Sciences, 2021).
Several values for one entry are separate records, joined by “and”; a condition that tells them apart may be missing. Identical values can stand only once.

What was measured:
[1] = nanoDSF thermostability of recombinant CPT II enzymes in assay buffer; assay type: physicochemical; conditions: for TM in Buffer: assay buffer, 1 mg/mL protein, nanoDSF; for ∆TM in Buffer: reference TM of WT in buffer (ΔTM = 0 °C)
Procedure: The protein stability was investigated applying nano differential scanning fluorimetry (nanoDSF) using a protein concentration of 1 mg/mL in assay buffer. […] The heating rate has been set to 1 °C per min. A heating ramp from 15 to 95 °C was determined. The nanoDSF data were obtained using a Prometheus NT.48 device. First derivatives were calculated using PR.ThermControl software (NanoTemper Technologies GmbH, Munich, Germany). Experiments were performed at least three times independently as double determination.

[2] = Onset of aggregation by scattered light back reflection during heating ramp; assay type: physicochemical; conditions: assay buffer; heating ramp 15 °C to 80 °C
Procedure: Supplementary materials can be found at https://www.mdpi.com/article/10.3390/ijms22094831/s1, Figure S1: Scattered light back reflection as measure for aggregation during the heating ramp from 15 °C to 80 °C of CPT II WT (black) and the variants P50H (red), S113L (blue) and Y479F (green) in assay buffer (magenta). The light scattering data were obtained simultaneously with nanoDSF data using the back reflection technology in a Prometheus NT.48 device. The unfolding of proteins leads to display of hydrophobic regions of the protein on the surface, which is followed by hydrophobic interaction of the protein molecules resulting in aggregation events. These aggregates are then detected via light scattering. […] The data allow the detection of onset of aggregation (Tagg) which differs clearly among the variants. The Tagg for WT is 38 °C, Y479F is 37 °C, S113L is 35 °C and P50H is 32 °C. […] Figure S2: The first derivatives of the transition curves of WT and the variants resulting from the ratio 350/330 nm were plotted against the temperature. The black, red, blue and green solid lines show the curves of WT and variants P50H, S113L and Y479F measured in assay buffer, respectively. The black, red, blue and green dashed lines show the maxima of the values of the first derivatives of the ratio 350 nm/330 nm of WT and variants P50H, S113L and Y479F, respectively. Figure S3: The effect of amino acid exchange in absence and presence of n-octyl-β-d-glucopyranoside (β-OG) on the stability of CPT II (1 mg/mL) assessed by nanoDSF. The TM of WT (37 °C) in buffer was used as reference value (ΔTM = 0 °C) to determine the ΔTM for the variants and the ΔTM for WT and variants in presence of β- OG. Error bars are SD derived from three independent experiments. Table S1. Comparison of the mean values of the half-lives (t1/2) of CPT II WT and the variants at 30 °C with the half-lives at 37, 40 or 42 °C. The differences of the half-lives for each CPT II enzyme between 37 and 40 or 42 °C as well as 40 and 42 °C are not significant. Number of experiments for each variant (n ≥ 3). Table S2. Comparison of the mean values of the half-lives (t1/2) between CPT II WT and the variants Y479F, S113L and P50H at 30, 37, 40 or 42 °C. n ≥ 3. Table S3. […] Comparison of the ∆TM-values of CPT II WT and the variants Y479F, S113L and P50H in buffer or in presence of 0.25 mM cardiolipin or 1% n-octyl-β-d-glucopyranoside (β-OG) assessed by nanoDSF (n ≥ 3). […] Comparison of the transition temperatures (TM) of WT and the variants Y479F, S113L and P50H in buffer with of 0.25 mM cardiolipin or 1% n-octyl-β-d-glucopyranoside (β-OG) assessed by nanoDSF (n ≥ 3). […]

[3] = substrate: C[N+](C)(C)C[C@H](O)CC(=O)[O-]; assay: Determination of the kinetic parameters kcat and KM; assay type: biochemical, human; conditions: L-carnitine varied, absence of CL, 25 °C
Procedure: Before activity measurements, the storage buffer of the enzymes was replaced with assay buffer (50 mM KH2PO4, 120 mM KCl, 1 mM EDTA-Na4) using vivaspin turbo 4 tubes (Satorius Stedim biotech GmbH, Göttingen, Germany) at 4 °C. The pH of assay buffer was adjusted with KOH to 7.4. The storage buffer was diluted at least 1:500 in assay buffer. In addition, before each experimental set up, the protein samples were centrifuged at 16,000× g for 5 min at 4 °C to remove any micro-aggregates. After that, the protein concentration was determined using bicinchoninic acid (BCA) protein assay kit (Thermo Fisher Scientific GmbH, Berlin, Germany). The enzyme activity of recombinant CPT II was performed following Rufer et al. with modifications described elsewhere. […] After pre-conditioning the mixture to 25 °C for 2 min, the reaction was started by adding 15 nM of recombinant enzyme. The reverse reaction of CPT II was detected with the enzyme activity assay. CPT II catalyzed the transfer of fatty acid residue from Pal-CoA to L-carnitine with release of CoA and Pal-carnitine. The released CoA was then detected by the reaction of the free thiol group with DTNB, forming 5-mercapto-(2-nitrobenzoic acid). This compound has a molar extinction coefficient of 13,600 M^−1 cm^−1 at a wavelength of 410 nm, and its formation was followed spectroscopically. […] The slope of the progress curve was used to determine the reaction velocity.
It is assumed that the reaction catalyzed by CPT II represents a ping-pong mechanism or compulsory order ternary-complex mechanism.
The kinetic parameters were determined by evaluating the obtained v/S characteristic according to the Michaelis–Menten Equation (1). The […] kcat was calculated using Equation (2):(1) v=Vmax∗[S]/KM+[S] (2) kcat=Vmax/cenzyme

Molecule | TM in Buffer [1] | ∆TM in Buffer [1] [°C] | Onset of aggregation (Tagg) [2] [°C] | Km ([3]; other: WT) [mM] | kcat ([3]; other: WT) [s⁻¹] | kcat/Km ([3]; other: WT) [M⁻¹ s⁻¹] | Km ([3]; other: Y479F) [mM] | kcat ([3]; other: Y479F) [s⁻¹] | kcat/Km ([3]; other: Y479F) [M⁻¹ s⁻¹] | Km ([3]; other: S113L) [mM] | kcat ([3]; other: S113L) [s⁻¹] | kcat/Km ([3]; other: S113L) [M⁻¹ s⁻¹]
CPT II WT (Homo sapiens) (protein, made in house; host or cells: Escherichia coli BL21Gold DE) SAGSGPGQYLQRSIVPTMHYQDSLPRLPIPKLEDTIRRYLSAQKPLLNDGQFRKTEQFCKSFENGIGKELHEQLVALDKQNKHTSYISGPWFDMYLSARDSVVLNFNPFMAFNPDPKSEYNDQLTRATNMTVSAIRFLKTLRAGLLEPEVFHLNPAKSDTITFKRLIRFVPSSLSWYGAYLVNAYPLDMSQYFRLFNSTRLPKPSRDELFTDDKARHLLVLRKGNFYIFDVLDQDGNIVSPSEIQAHLKYILSDSSPAPEFPLAYLTSENRDIWAELRQKLMSSGNEESLRKVDSAVFCLCLDDFPIKDLVHLSHNMLHGDGTNRWFDKSFNLIIAKDGSTAVHFEHSWGDGVAVLRFFNEVFKDSTQTPAVTPQSQPATTDSTVTVQKLNFELTDALKTGITAAKEKFDATMKTLTIDCVQFQRGGKEFLKKQKLSPDAVAQLAFQMAFLRQYGQTVATYESCSTAAFKHGRTETIRPASVYTKRCSEAFVREPSRHSAGELQQMMVECSKYHGQLTKEAAMGQGFDRHLFALRHLAAAKGIILPELYLDPAYGQINHNVLSTSTLSSPAVNLGGFAPVVSDGFGVGYAVHDNWIGCNVSSYPGRNAREFLQCVEKALEDMFDALEGKSIKS | 36.9 ± 1.0 °C and 37 °C | 0.0 ± 1.0 | 38 | 15.1 ± 3.4 | 149 ± 11.1 | 9800 ± 1600 | – | – | – | – | – | –
CPT II variant Y479F (Homo sapiens; Y479F) (protein, made in house; host or cells: Escherichia coli BL21Gold DE) SAGSGPGQYLQRSIVPTMHYQDSLPRLPIPKLEDTIRRYLSAQKPLLNDGQFRKTEQFCKSFENGIGKELHEQLVALDKQNKHTSYISGPWFDMYLSARDSVVLNFNPFMAFNPDPKSEYNDQLTRATNMTVSAIRFLKTLRAGLLEPEVFHLNPAKSDTITFKRLIRFVPSSLSWYGAYLVNAYPLDMSQYFRLFNSTRLPKPSRDELFTDDKARHLLVLRKGNFYIFDVLDQDGNIVSPSEIQAHLKYILSDSSPAPEFPLAYLTSENRDIWAELRQKLMSSGNEESLRKVDSAVFCLCLDDFPIKDLVHLSHNMLHGDGTNRWFDKSFNLIIAKDGSTAVHFEHSWGDGVAVLRFFNEVFKDSTQTPAVTPQSQPATTDSTVTVQKLNFELTDALKTGITAAKEKFDATMKTLTIDCVQFQRGGKEFLKKQKLSPDAVAQLAFQMAFLRQFGQTVATYESCSTAAFKHGRTETIRPASVYTKRCSEAFVREPSRHSAGELQQMMVECSKYHGQLTKEAAMGQGFDRHLFALRHLAAAKGIILPELYLDPAYGQINHNVLSTSTLSSPAVNLGGFAPVVSDGFGVGYAVHDNWIGCNVSSYPGRNAREFLQCVEKALEDMFDALEGKSIKS | 36.2 ± 1.2 °C | -0.74 ± 1.2 | 37 | – | – | – | 17.4 ± 4.4 | 140 ± 18.5 | 8100 ± 1100 | – | – | –
CPT II variant S113L (Homo sapiens; S113L) (protein, made in house; host or cells: Escherichia coli BL21Gold DE) SAGSGPGQYLQRSIVPTMHYQDSLPRLPIPKLEDTIRRYLSAQKPLLNDGQFRKTEQFCKSFENGIGKELHEQLVALDKQNKHTSYILGPWFDMYLSARDSVVLNFNPFMAFNPDPKSEYNDQLTRATNMTVSAIRFLKTLRAGLLEPEVFHLNPAKSDTITFKRLIRFVPSSLSWYGAYLVNAYPLDMSQYFRLFNSTRLPKPSRDELFTDDKARHLLVLRKGNFYIFDVLDQDGNIVSPSEIQAHLKYILSDSSPAPEFPLAYLTSENRDIWAELRQKLMSSGNEESLRKVDSAVFCLCLDDFPIKDLVHLSHNMLHGDGTNRWFDKSFNLIIAKDGSTAVHFEHSWGDGVAVLRFFNEVFKDSTQTPAVTPQSQPATTDSTVTVQKLNFELTDALKTGITAAKEKFDATMKTLTIDCVQFQRGGKEFLKKQKLSPDAVAQLAFQMAFLRQYGQTVATYESCSTAAFKHGRTETIRPASVYTKRCSEAFVREPSRHSAGELQQMMVECSKYHGQLTKEAAMGQGFDRHLFALRHLAAAKGIILPELYLDPAYGQINHNVLSTSTLSSPAVNLGGFAPVVSDGFGVGYAVHDNWIGCNVSSYPGRNAREFLQCVEKALEDMFDALEGKSIKS | – | -3.1 ± 0.7 | 35 | – | – | – | – | – | – | 15.5 ± 2.3 | 144 ± 5 | 9300 ± 1400
